Data as given in publication PMC13589956, “Engineered flavonoid disrupts mitochondrial AIF/CHCHD4 complex for targeted cancer therapy” (Acta Pharmaceutica Sinica. B, 2026).
One block for each binder: values may come before it.

Target: T1, HIS-AIF_(103-613) (human, UniProt O95831 103-613)
T1 construct: apoptosis-inducing factor (AIF, encoded by AIFM1), human, residues 103-613; also called apoptosis-inducing factor; source: E. coli BL21+DE3(RIPL), 0.5 mmol/L IPTG 3 h at 37 °C, purified
Assay: AlphaScreen or HTRF; His-AIF_(103-613) (5 μL at 300 nmol/L) and GST-CHCHD4 (5 μL at 100 nmol/L, 2 h) coupled by their tags to donor and acceptor beads (5 μg/mL, 3 h at 23 °C in the dark); 384-well plates, 25 μL, 0.1% BSA/PBS; N27 at 3 μmol/L as positive control of inhibition
Conditions: both partners purified

T1 sequence (O95831 103-613): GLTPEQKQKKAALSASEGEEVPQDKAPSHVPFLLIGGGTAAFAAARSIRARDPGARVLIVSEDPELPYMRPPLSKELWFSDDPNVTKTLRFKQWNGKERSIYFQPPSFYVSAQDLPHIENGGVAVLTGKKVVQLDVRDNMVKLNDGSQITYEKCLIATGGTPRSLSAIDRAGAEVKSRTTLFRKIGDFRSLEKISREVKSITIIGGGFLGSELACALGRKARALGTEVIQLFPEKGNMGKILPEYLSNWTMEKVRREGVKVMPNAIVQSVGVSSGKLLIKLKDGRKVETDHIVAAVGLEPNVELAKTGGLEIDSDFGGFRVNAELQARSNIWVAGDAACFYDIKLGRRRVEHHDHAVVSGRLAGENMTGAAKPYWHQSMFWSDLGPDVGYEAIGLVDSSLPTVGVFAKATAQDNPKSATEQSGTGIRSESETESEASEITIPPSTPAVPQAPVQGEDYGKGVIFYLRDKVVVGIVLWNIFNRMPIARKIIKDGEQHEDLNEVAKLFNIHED

binding result: binds
B1: peptide N27 (peptide, UniProt Q8N4Q1 1-27, looked up)
peptide: MSYCRQEGKDRIIFVTKEDHETPSSAE
notes: synthetic peptide corresponding to the N-terminal 27 amino acids of CHCHD4; source: synthetic peptide

binding result: binds
B2: GST-CHCHD4 (natural protein, human, UniProt Q8N4Q1 1-142, looked up)
chain: MSYCRQEGKDRIIFVTKEDHETPSSAELVADDPNDPYEEHGLILPNGNINWNCPCLGGMASGPCGEQFKSAFSCFHYSTEEIKGSDCVDQFRAMQECMQKYPDLYPQEDEDEEEEREKKPAEQAEETAPIEATATKEEEGSS
notes: coiled-coil-helix-coiled-coil-helix domain-containing protein 4 (CHCHD4), human; it is printed both as GST-CHCHD4 and as CHCHD4-Gst; also called CHCHD4-Gst; coiled-coil-helix-coiled-coil-helix domain-containing protein 4; source: E. coli BL21+DE3(RIPL), 0.5 mmol/L IPTG 3 h at 37 °C, purified
